The data set can be described thus: label from the status in PepcDB records.
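Further: failed if final PepcDB status was selected cloned or expressed and not failed if soluble or beyond.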

Take “MPETAWLSDIETLTYLHATVSTHRHQVRVPETPMHLDAILADQVLTGGLEPRLGQAHLRTLTIMGFPSQTWPGLLDDLNRLAFDYRWVTRAICLDKTDAAKVLGRIRRQWFAKRKSIAAMLKEIMTNEASALMDSDAANKAVDADMALQELGSDLVGAAYVTATVTIWNDDPRIADERLRLVEKVIQGRDFTCMVERVNAVEAWLGSLPGHVYANVRQPPVSTLNLAHMMPFSAVWAGPERDEHFDAPPLFLAKTEGSTPFRFSLHVGDVGHTLVVGPTGAGKSVLLALMALQFRRYARSQIFAFDFGGSIRAAALAMRGDWHDLGGSLAEDASEPVALQPLAGIDAEEERAWAAEWVAAILAREKVEITPDVKEHVWSALNNLASAPKSERTLTGLSVLLQSQALKQALKPYCVGGPWGRLLDAETERVGSADVLAFETEGLIGTGAAAAVLAYLFHRIEHRLDGRPTLLIVDEGWLALDDEGFASQLREWLKTLRKKNASVIFATQSLADIDGSAIAPAIIESCPTRLFLPNERALEPQIATIYERFGLNDRQIEILSRATPKRDYYCQSRRGNRLFELGLGEVALAFTAASSKGDQILIARLMAEHGPTGFAKAWLEARGVAWATDLIITPQKEKLPLEHHHHHH”: the protein production entry is “not failed”.
Next, “MPETSSMLESVVAYLQQAEPSSVYAVLFLSAYFENVIPPIPGDVPIALAGYLLTFSHITFVAALFWSTIGSVAGFMTVFLLSRFLGLKLYAVGECEARHKFAQSIHKLFPPSEMEVVRQKFSGHGYLAVVVNRFLFGSRAVICIVAGMLHLKIPLVLAASFVSSLLWNILLLSTGYLLGSNWDKIGQYAVLYTAPFTILFTGFIVWKVVAYLKKRKQQADGA”: “failed”; “MPFPPEVYVLLVAALPVVELRGAIPLGVALGLSPWESFLWALLGNLLVVPLALGLLPWAVGLATRMPLFARAWRALEVRVRLKGEAQVQRLGALGLFLFVAVPLPGTGAWSGAVLAVVLGVRRRYAFPALALGVVAAGLLVLLLTGGTVYGLNYLR”: “failed”; “MPGDLPMPTTMFTADELAVIRRAYAHQVMATAATTNPRIEAAFATVPREKFLGAPPWQIANLGGGNRPLPSSDLVLAYQDVLFALQPDNGVNNGSPSLHARLLAELDIQIGDRIAHIGAGTGYYSAILAELVGTSGHVYAVEMDPDLAAHAQAALAERANVSVINADGSQWPQQEVDAIYVNFAVARPAEPWIERLRPGGRLVLPLGVPRQDRPPKGGRHASHGAALRIEHGEGGFAARWIGTAYFVCANGGLTIDDNEIEALTAAFRRGGIEFVKSLLWKTEPRIGRCWHIGGQWALCYDDV”: “failed”.
Turning to “MPGEPGISTRPFSHCERGTTTRCGEGDAHVTVVISHLLVPATVSTVVTSSSFDRLQALLQRPAVASISPALREALARAWQELPPAQTDNVPWALLGDTLDALALLAADEATLIAALLFDLPALRGAVTDLPWQPAERRVAVEGLLDGLDAADQVWALHAGREAGRNSEGLRRLLLSIIHDLRVVPILLARQLSRMRVADRLSKEQRHALAQLTRDIHAPLANRLGIWQVKWELEDLAFRHLEPDTYRRIAREVDETRVARERYLEAVKRTLSAALAQQGLRADVSGRPKHIYSIWRKMQKKRLSFDQLYDIRAVRVMVDDVAACYAALGAVHSLWAPVPSEFDDYIARPKANDYRSLHTAVVGPEGRTIEIQIRTHEMHAQAELGVAAHWKYKEGGKGGEKAFDRKILWMRQLLEQVQEGEHGELAGALDAELIEDRVYALTPKGEVIDLPQGATPLDFAYHVHTMVGHRCRGARVNDRIVPLTYRLRSGDRVEIMTAKEADPRRDWLLASNGFLASGRSRDKVRAWFHKLDRARNVQAGKDLLDRELKRLGLQHADLSVATRKFHADTIDDLYIQVALGDTGPNQVSRALLEAERAASQPAVPAPPRPTARREGLGKSKFTVEGVGNLLVQLARCCQPVAGEPIAGYLTRGRGITVHRTDCAALARLAAAHPQRVLPVEWGKAGTGYEVDVQVRAVDRRWLLKDITNLIAQEDAHVLEINSDNVRDTGRAQLRLRLKVSDYDQLSGLLGKLDALPGVSEVRRLG”, the protein production entry is given as “failed”.
For the sequence “MPGFEVLYQAAALCLTYPDDDFRARLPLLREAAPQLRGFTDHAAATGQGELQAHYVEVFDFRNRHSLYLSWWTDGDTRNRGMSLVRFKELYRAHGLEFTGEELPDFLPAVLEFVSRTGDMGMLTEHRDALDQLRARLTAFGTPYACVLDAVCATLPPAPTGARR”, the protein production result is on record as “failed”.
In the case of “MPGHVPPDLAVIEVTERRTRRSPAGYRPRMSEVVQVGAWGLLAGSALLLGAAIGFGVRVSQKVIATVMAFGAGVLISAVSYELVGEAYEQAGLAPAAIGTVIGAAAYTLGNLWLARRGARHRKRSGHHTAQAQPSEAQQGGSGLALAFGALLDGVPESAVIGVSLLDGGTVSTVTVAAVFISNVPEGLSSSAGMKRAGRGTTYVFGVWGAIAATSTLAAVLGYTVVGAFSPAVIAAVTAVAAGAILAMIADTMIPEAFEDAHLAIGLVTVSGFLVSFALSHV”, the protein production result is “failed”.
For the sequence “MPGLPEVAPGDDLAKLIAAVEPGLVDGDVLLVTSKIVSKAEGRIVRADDREAAIDAETVRVVARRGALRIVENRQGLVMAAAGVDASNTPSGTVLLLPEDPDASARAIRDGLRDTLGVDVGVVVTDTFGRPWRTGLTDVAIGAAGVRVLDDLRGGTDAYGNPLSATVVATADELAAAGDLVKGKAAGLPVAVVRGLPHVIAGDDEAGARAMVRGGRDDMFRLGTSEAVREAVTQRRTVRAFTDEPVDPGAVRRAVAAAVTAPAPHHTTPWRFVLLESAESRTRLLDAMRDAWIADLRGDRKTEESIAKRVRRGDVLRNAPYLVVPCMVMDGSHSYGDARRDAAEREMFVVATGAGVQNFLVALAGERLGSAWVSSTMFCRDVVRRALGLPESWEPMGAVAVGHAAEEPRDRPARDAGAFIEVRLEHHHHHH”, the protein production result is listed as “not failed”.
As for “MPGRKRKLAAKTAELAPEAGEGSESTSLVGSADASASTAAGVAHTEQQEMPSGGLHESFLESIPPAASFLEELAWVESLASPSYVAYLCQMRRFDDVVAQRRLTTLQRWRQDPAYRQHVSQPIALFFLEQLCSAEFREALRHPAVAALYERQVDLYRRCYGNLLNTGESRVLR”, the entry is “not failed”; as for “MPGSALLSLQQELRRGFEALKAAKDTFDGGHAECQELVSSLGNLAPQLKALKQVQISETPLSGFPCLQQRLHYKLSLAVDALLAKLAEKMAALQKVWDAFAQQVFTVVQLYEKNTDALDISVCVSRSAVCPSVSDMLEWLQDADRYYRLQLMQSRLLLQTLTPTDLTSMETAPNRWRSVRSARQEERIADALCQVSIFLETE”, “failed”; as for “MPGSRDILADLVAFDTVSRESNLALIDYVRDYLAGFGVDSELFFDADGRKANLYATIGPSDRGGVCLSGHTDVVPADGQAWSVPPFRLSERDGRLYGRGTADMKGYLACVLAAVPAFLAAPLRLPVHLAFSYDEEVGCLGVRSLLAALERRPHKPLLCIIGEPTELKPVLGHKGKLAMRCEVHGAACHSAYAPQGVNAIEYAARLIGRLGEIGARLAVPERHDRRFDPPYSTVQTGLIQGGRALNIVPAECRFDFEVRALPADDPRQVAEELRDYAESELLPRMRAVERSTDIRFTPLSAYPGLLTADDSQAAELIGLLSGSTDFSTVAFGTEGGLFHQAGIPAVICGPGSMDQGHKPDEFVSLAQLEACDALLARLAAW”, “failed”.
Take “MPGWHAGGKPACRVPLLTKTGRFKRPVFSSSLSATPRFVAALRSTLLYEGAQHMLKLFVRNLPPQTTEAGLKELFTGYGKVFELQLSRDMFTGKARGTASVSMEGHEARKAIEALDGSDYEGKTIYVALDKGPRSGGRGRR”: the protein production entry is listed as “failed”.
As for “MPGYQKTKDVGHFLSVTGTVIRTSLVKVLEFERDYMCNKCKHVFVIKADFEQYYTFCRPSSCPSLESCDSSKFTCLSGLSSSPTRCRDYQEIKIQEQVQRLSVGSIPRSMKVILEDDLVDSCKSGDDLTIYGIVMQRWKPFQQDVRCEVEIVLKANYIQVNNEQSSGIIMDEEVQKEFEDFWEYYKSDPFAGRNVILASLCPQVFGMYLVKLAVAMVLAGGIQRTDATGTRVRGESHLLLVGDPGTGKSQFLKYAAKITPRSVLTTGIGSTSAGIVLNCTVSPGSLVCKLNTRTTILAATNPKGQYDPQESVSVNIALGSPLLSRFDLILVLLDTKNEDWDRIISSFILENKGYPSKSEKLWSMEKMKTYFCLIRNLQPTLSDVGNQVLLRYYQMQRQSDCRNAARTTIRLLESLIRLAEAHARLMFRDTVTLEDAITVVSVMESSMEVHC”, the entry is “failed”; as for “MPIDQEKLAKLQKLSANNKVGGTRRKLNKKAGSSAGANKDDTKLQSQLAKLHAVTIDNVAEANFFKDDGKVMHFNKVGVQVAAQHNTSVFYGLPQEKNLQDLFPGIISQLGPEAIQALSQLAAQMEKHEAKAPADAEKKDEAIPELVEGQTFDADVE”, “failed”.
As for “MPIFSFLLFVFISSFTPGPNNFLAMTYANQHGLKRSINFCFGVAFGFFILTSLCSFFNIVLINIIPIIEFPLKILGVAYMLYLAFKIITSKGGAGHNEKNNKNLFTVGIFLQFINPKGILFGLTVVSTFILPYYNSYSSFLLFSLFLGIVGLLSTFSWSLFGSMFQKLLLKHNQLFNIIMAVLLVFSAVSIVIH”, the entry is “failed”.
“MPIIIDKDLPARKVLQEENIFVMTKERAETQDIRALKIAILNLMPTKQETEAQLLRLIGNTPLQLDVHLLHMESHLSRNVAQEHLTSFYKTFRDIENEKFDGLIITGAPVETLSFEEVDYWEELKRIMEYSKTNVTSTLHICWGAQAGLYHHYGVQKYPLKEKMFGVFEHEVREQHVKLLQGFDELFFAPHSRHTEVRESDIREVKELTLLANSEEAGVHLVIGQEGRQVFALGHSEYSCDTLKQEYERDRDKGLNIDVPKNYFKHDNPNEKPLVRWRSHGNLLFSNWLNYYVYQETPYVL”: the protein production entry is on record as “not failed”.
“MPIIKSSRVNIGRFTIGGSIPIVIISIFDHDAKSLTEKFETKKLSDKNLYEIRFDLFDKVNIDEELEIIRALDEMDIDYIFTYRGHDPEKIYETAITKMVPAVDMDLSLLNKVNRRSPDTRIMVSYHTDSSKDMIEKLDEMLKANADIVKVACNYKDEKNFFKDLIEIAQRKEISGKPVLFIPMGKSFLRVISAYYVSDMVYAKYDKETAMGQPDPDYYNKAFSLFNYIG”: the protein production result is “failed”.
“MPIKARETDMATRFKGLSAFPITPADEAGRVDIEAFSALIARLDAAEVDSVGILGSTGIYMYLTREERRRAIEAAATILRGRRTLMAGIGALRTDEAVALAKDAEAAGADALLLAPVSYTPLTQEEAYHHFAAVAGATALPLAIYNNPTTTRFTFSDELLVRLAYIPNIRAIKMPLPADADYAGELARLRPKLSDDFAIGYSGDWGCTDATLAGGDTWYSVVAGLLPVPALQLMRAAQAGNAEEAKRLDATFQPLWALFKEFGSIRVIYAAANILSLTVSEPPRPILPLTSAERQRVEEALEALSALETAP”: the protein production entry is “not failed”.
As to “MPILIVAVGVLILLFLIIKVKLNTFVSLIVVSFLVAIGLGMDINKIVLSIETGIGGQLGHLALVFGLGAMLGRLVSDAGGGYRIAITLIDKFGRKRIQAAVVVASFIIGIALFFEVGLVLLIPIVYAIAKELKMPFLYLGIPMAAALNVTHGFLPPHPAPTAISVAYGAHIGQVLLFGIIIAVPTTVIAGPLFNKFAMKRFPGAYQKHGNLSGLGPRKEFQLDETPGFAISAVTSLFPVIFMAMATIFSLLLSEHSKGKDIIEFIGTPGTAMLISLLLALYTMGYARKISMQEIGRSISESISQIAMMLLIIGGGGAFKQVLIDGGVGDYVADFFRQTNMSPLFVAWTIAAVLRLCLGSATVAALTTAGMAAPLMEAGSVNPALMVLATGAGSVIACHVNDAGFWMVKEFFGLSMKETFQTWTLLTTVLSVTGLGCVLLAGLVM”, the protein production result is given as “failed”.
